In article PMC3192196 (Angewandte Chemie (International Ed. in English), 2011):

What was measured:
[1] = electronic absorption and fluorescence spectroscopy; assay type: physicochemical; details: for emission maximum / fluorescence lifetime: aqueous solution; for extinction coefficient: at absorbance maximum 776 nm; for absorbance maximum: electronic spectra; for quantum yield: in PBS
PSMA [2] = target: T1, PSMA (Homo sapiens, UniProt Q04609); test: fluorescence-based PSMA inhibition assay; assay type: biochemical
[3] = ex vivo biodistribution, normal tissues; details: for tissue uptake at 1 h / tissue uptake at 2 h / tissue uptake at 5 h / tissue uptake at 24 h: SCID, mouse
in vivo = details: SCID, mouse, PSMA− PC3-flu tumor
[4] = system: PSMA+ PC3-PIP and PSMA− PC3-flu xenografts; test: sequential SPECT-CT and optical; assay type: in vivo, severe-combined immune-deficient (SCID) mice
PSMA [5] = target: T1, PSMA; test: blocking of uptake with ZJ43; assay type: in vivo; details: blocking dose 50 mg/Kg ZJ43 (Figure S9)
PSMA+ PC3-PIP xenografts = test: ex vivo biodistribution, PSMA+ PC3 PIP tumor; assay type: in vivo, severe-combined immune-deficient (SCID) mice; details: for PIP:flu uptake ratio: PSMA+ PIP to PSMA− flu tumor
[6] = ex vivo biodistribution, PSMA+ PC3 PIP tumor; assay type: in vivo, severe-combined immune-deficient (SCID) mice; details: SCID, mouse, PSMA+ PC3-PIP tumor

T1 sequence (Q04609 whole entry): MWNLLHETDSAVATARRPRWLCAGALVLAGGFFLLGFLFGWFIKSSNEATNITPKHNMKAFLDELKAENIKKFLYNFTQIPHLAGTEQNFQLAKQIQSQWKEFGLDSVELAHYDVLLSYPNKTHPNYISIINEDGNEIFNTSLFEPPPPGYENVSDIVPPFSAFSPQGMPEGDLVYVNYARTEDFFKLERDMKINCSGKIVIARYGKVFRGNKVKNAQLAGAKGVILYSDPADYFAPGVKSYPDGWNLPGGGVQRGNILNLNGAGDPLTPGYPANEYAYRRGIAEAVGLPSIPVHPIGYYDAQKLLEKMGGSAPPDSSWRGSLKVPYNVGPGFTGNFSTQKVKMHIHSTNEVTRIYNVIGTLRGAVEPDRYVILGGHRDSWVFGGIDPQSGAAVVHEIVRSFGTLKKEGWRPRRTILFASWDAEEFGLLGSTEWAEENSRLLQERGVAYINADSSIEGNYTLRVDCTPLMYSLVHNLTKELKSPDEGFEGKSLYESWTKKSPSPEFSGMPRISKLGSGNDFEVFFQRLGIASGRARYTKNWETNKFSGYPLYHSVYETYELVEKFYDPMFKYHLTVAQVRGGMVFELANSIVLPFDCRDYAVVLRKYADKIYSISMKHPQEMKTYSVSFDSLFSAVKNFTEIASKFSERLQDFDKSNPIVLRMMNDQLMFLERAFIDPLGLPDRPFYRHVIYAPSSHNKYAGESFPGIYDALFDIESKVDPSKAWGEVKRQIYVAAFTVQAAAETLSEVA

Q: Which emission maximum [1] does the source give for `CC1(C)C(=CC=C2CCCC(C=CC3=[N+](CCCCS(=O)(=O)O)c4ccc(S(=O)(=O)[O-])cc4C3(C)C)=C2Oc2ccc(S(=O)(=O)O)cc2)N(CCCCCC(=O)NCCCC[C@H](NC(=O)CN2CCN(CC(=O)O)CCN(CC(=O)O)CCN(CC(=O)O)CC2)C(=O)N[C@@H](CCCCNC(=O)CCCCCCC(=O)NCCCC[C@H](NC(=O)N[C@@H](CCC(=O)O)C(=O)O)C(=O)O)C(=O)O)c2ccc(S(=O)(=O)O)cc21` (single isomer, unassigned) [Compound 1] here?
A: Its emission maximum is 792 nm.

Q: And the fluorescence lifetime [1]?
A: Its fluorescence lifetime is 420 psec.

Q: What about the extinction coefficient [1] of the same compound?
A: The extinction coefficient was 181,000 M^−1cm^−1.

Q: And the absorbance maximum [1]?
A: The absorbance maximum was 776 nm.

Q: What about the quantum yield [1] of the same compound?
A: The quantum yield was ~ 8.9%.

Q: What about the “PSMA inhibition, in words” value (PSMA [2]) of the same compound?
A: The value was “potent inhibitors of PSMA”.

Q: What does the source list for `CC1(C)C(=CC=C2CCCC(C=CC3=[N+](CCCCS(=O)(=O)O)c4ccc(S(=O)(=O)[O-])cc4C3(C)C)=C2Oc2ccc(S(=O)(=O)O)cc2)N(CCCCCC(=O)NCCCC[C@H](NC(=O)CN2CCN(CC(=O)O)CCN(CC(=O)O)CCN(CC(=O)O)CC2)C(=O)N[C@@H](CCCCNC(=O)CCCCCCC(=O)NCCCC[C@H](NC(=O)N[C@@H](CCC(=O)O)C(=O)O)C(=O)O)C(=O)O)c2ccc(S(=O)(=O)O)cc21` (single isomer, unassigned) [[^111In]1, metal not drawn]?
A: tissues with highest uptake at 1 h ([3]; 1 h): The blood, spleen, gastrointestinal tract, kidney and bladder displayed the highest uptake at 1 h; kidney clearance, in words ([3]; 1 h to 24 h): Steady clearance from the kidneys; tissue uptake at 1 h ([3]; bladder): 4.1 ± 1.7 %ID/g; tissue uptake at 2 h ([3]; bladder): 2.7 ± 1 %ID/g; tissue uptake at 5 h ([3]; bladder): 1.1 ± 0.6 %ID/g; tissue uptake at 24 h ([3]; bladder): 2 ± 0.5 %ID/g; tissue uptake at 1 h ([3]; blood): 9.9 ± 5 %ID/g; tissue uptake at 2 h ([3]; blood): 7.1 ± 1.2 %ID/g; tissue uptake at 5 h ([3]; blood): 4.1 ± 0.8 %ID/g; tissue uptake at 24 h ([3]; blood): 0.9 %ID/g; tissue uptake at 1 h ([3]; heart): 3.3 ± 0.5 %ID/g; tissue uptake at 2 h ([3]; heart): 1.8 ± 0.3 %ID/g; tissue uptake at 5 h ([3]; heart): 1.8 ± 0.1 %ID/g; tissue uptake at 24 h ([3]; heart): 0.8 ± 0.1 %ID/g; tissue uptake at 1 h ([3]; kidney): 104 ± 9.4 %ID/g; tissue uptake at 2 h ([3]; kidney): 97.1 ± 13 %ID/g; tissue uptake at 5 h ([3]; kidney): 122 ± 21.6 %ID/g; tissue uptake at 24 h ([3]; kidney): 48.1 ± 17.7 %ID/g; tissue uptake at 1 h ([3]; large intestine): 1.5 ± 0.5 %ID/g; tissue uptake at 2 h ([3]; large intestine): 1.3 ± 0.3 %ID/g; tissue uptake at 5 h ([3]; large intestine): 0.8 ± 0.5 %ID/g; tissue uptake at 24 h ([3]; large intestine): 2 ± 0.4 %ID/g; tissue uptake at 1 h ([3]; liver): 2.4 ± 0.1 %ID/g; tissue uptake at 2 h ([3]; liver): 2.2 %ID/g; tissue uptake at 5 h ([3]; liver): 3.2 ± 1.2 %ID/g; tissue uptake at 24 h ([3]; liver): 3.1 ± 0.4 %ID/g; tissue uptake at 1 h ([3]; muscle): 1.2 ± 0.6 %ID/g; tissue uptake at 2 h ([3]; muscle): 0.7 ± 0.2 %ID/g; tissue uptake at 5 h ([3]; muscle): 0.9 ± 0.2 %ID/g; tissue uptake at 24 h ([3]; muscle): 0.4 %ID/g; tissue uptake at 1 h ([3]; pancreas): 2.1 ± 0.1 %ID/g; tissue uptake at 2 h ([3]; pancreas): 1.3 ± 0.3 %ID/g; tissue uptake at 5 h ([3]; pancreas): 2 ± 1 %ID/g; tissue uptake at 24 h ([3]; pancreas): 1 ± 0.3 %ID/g; tissue uptake at 1 h ([3]; small intestine): 1.8 ± 0.5 %ID/g; tissue uptake at 2 h ([3]; small intestine): 1.5 ± 0.2 %ID/g; tissue uptake at 5 h ([3]; small intestine): 1.6 ± 0.3 %ID/g; tissue uptake at 24 h ([3]; small intestine): 2 ± 0.7 %ID/g; tissue uptake at 1 h ([3]; spleen): 11.3 ± 3.7 %ID/g; tissue uptake at 2 h ([3]; spleen): 6.8 ± 0.9 %ID/g; tissue uptake at 5 h ([3]; spleen): 4.8 ± 2.4 %ID/g; tissue uptake at 24 h ([3]; spleen): 8.2 ± 5.4 %ID/g; tissue uptake at 1 h ([3]; stomach): 1.4 ± 0.3 %ID/g; tissue uptake at 2 h ([3]; stomach): 1.2 ± 0.1 %ID/g; tissue uptake at 5 h ([3]; stomach): 2.4 ± 1.8 %ID/g; tissue uptake at 24 h ([3]; stomach): 1 ± 0.1 %ID/g; tissue uptake at 1 h (in vivo): 2.1 ± 0.7 %ID/g; tissue uptake at 2 h (in vivo): 2.1 ± 0.5 %ID/g; tissue uptake at 5 h (in vivo): 1.9 ± 0.2 %ID/g; tissue uptake at 24 h (in vivo): 2 ± 0.2 %ID/g; radiotracer uptake on in vivo imaging ([4]; 37 MBq IV, imaged repeatedly over two days): Intense radiotracer uptake was seen only in the PSMA+ PIP tumors and in the kidneys; tumor visualization by NIRF imaging ([4]; single injection of ~0.22 μg (0.1 nmol)): able to visualize tumor with NIRF imaging; blocking of uptake in PSMA+ PC3 PIP tumor and kidney by ZJ43 (PSMA [5]): effective blocking in PSMA+ PC3 PIP tumor and kidney; PIP:flu uptake ratio (PSMA+ PC3-PIP xenografts; 1h): 6.7; PIP:flu uptake ratio (PSMA+ PC3-PIP xenografts; 2h): 6.3; PIP:flu uptake ratio (PSMA+ PC3-PIP xenografts; 5h): 8.7; PIP:flu uptake ratio (PSMA+ PC3-PIP xenografts; 24h): 7.4; binding and accumulation in PSMA+ PC3-PIP xenografts, in words (PSMA+ PC3-PIP xenografts; biodistribution, up to 24 h): PSMA dependent binding in PSMA+ PC3-PIP xenografts with rapid accumulation at the tumor site that persisted throughout the course of the experiment; tissue uptake at 1 h [6]: 13.9 ± 1.9 %ID/g; tissue uptake at 2 h [6]: 13.3 ± 2.4 %ID/g; tissue uptake at 5 h [6]: 16.4 ± 3.7 %ID/g; tissue uptake at 24 h [6]: 14.6 ± 1.3 %ID/g

Q: With `CC1(C)C(=CC=C2CCCC(C=CC3=[N+](CCCCS(=O)(=O)O)c4ccc(S(=O)(=O)[O-])cc4C3(C)C)=C2Oc2ccc(S(=O)(=O)O)cc2)N(CCCCCC(=O)NCCCC[C@H](NC(=O)CN2CCN(CC(=O)O)CCN(CC(=O)O)CCN(CC(=O)O)CC2)C(=O)N[C@@H](CCCCNC(=O)CCCCCCC(=O)NCCCC[C@H](NC(=O)N[C@@H](CCC(=O)O)C(=O)O)C(=O)O)C(=O)O)c2ccc(S(=O)(=O)O)cc21` (single isomer, unassigned) [[^113/^115In]1] as the compound, how does the emission maximum [1] read?
A: Its emission maximum is 792 nm.

Q: What about the fluorescence lifetime [1] of the same compound?
A: Its fluorescence lifetime is 483 psec.

Q: And the extinction coefficient [1]?
A: The extinction coefficient was 181,000 M^−1cm^−1.

Q: And the “spectral properties of 1 versus [^113/^115In]1, in words” value ([1]; comparison of 1 and [^113/^115In]1)?
A: The value was “did not observe any significant changes in the spectral properties”.

Q: What about the absorbance maximum [1] of the same compound?
A: The absorbance maximum was 776 nm.

Q: And the quantum yield [1]?
A: The quantum yield was ~ 8.9%.

Q: What about the “PSMA inhibition, in words” value (PSMA [2]) of the same compound?
A: The value was “potent inhibitors of PSMA”.
